Here are results for four molecules from PMC10397247.

Read-outs that look alike come from different tables or passages of the source.

The target of one assay is T1, 4H_APH.
T1 chain: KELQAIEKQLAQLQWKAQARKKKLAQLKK
The assay is described as follows: two-hybrid library CCmax.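 Note: natural log of median RNA to DNA barcode read ratio; higher means stronger binding.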 Particulars: mean of both orientations.

For the next assay, the target named is T2, 4H87-AA.
T2 chain: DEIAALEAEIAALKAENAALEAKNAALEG
The assay is described as follows: two-hybrid library CCmax.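 Note: natural log of median RNA to DNA barcode read ratio; higher means stronger binding.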 Conditions: mean of both orientations.

The target in a further assay is T3, O11-AA.
T3 chain: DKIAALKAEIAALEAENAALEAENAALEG
The assay is described as follows: two-hybrid library CCmax.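 Note: natural log of median RNA to DNA barcode read ratio; higher means stronger binding.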

The target of another assay is T4, 4H775-AA.
T4 chain: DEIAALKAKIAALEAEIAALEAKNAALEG
The assay is described as follows: two-hybrid library CCmax.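 Note: natural log of median RNA to DNA barcode read ratio; higher means stronger binding.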

For a further assay, the target named is T5, O13-AA.
T5 chain: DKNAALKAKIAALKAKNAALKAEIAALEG
The assay is described as follows: two-hybrid library CCmax.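 Note: natural log of median RNA to DNA barcode read ratio; higher means stronger binding.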 Particulars: mean of both orientations.

Another assay deals with T6, 4H_BCR.
T6 chain: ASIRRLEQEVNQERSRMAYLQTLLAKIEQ
The assay is described as follows: two-hybrid library CCmax.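 Note: natural log of median RNA to DNA barcode read ratio; higher means stronger binding.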 Particulars: mean of both orientations.

The target of a further assay is 4H_GCN4. Nature of the assay: two-hybrid library CCmax. Conditions: mean of both orientations.
The target of another assay is GCN2_T. Nature of the assay: two-hybrid library CCmax.
The next assay addresses T7, 4H816-AA.
T7 chain: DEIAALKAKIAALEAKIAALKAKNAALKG
The assay is described as follows: two-hybrid library CCmax. Particulars: mean of both orientations.

The target in a further assay is T8, 4H510-AA.
T8 chain: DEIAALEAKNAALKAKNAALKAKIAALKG
Nature of the assay: two-hybrid library CCmax.

Another assay deals with T9, O14-AA.
T9 chain: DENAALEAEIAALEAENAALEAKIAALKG
The assay is described as follows: two-hybrid library CCmax. Conditions: mean of both orientations.

The next assay has as its target T10, APC9291-AA.
T10 chain: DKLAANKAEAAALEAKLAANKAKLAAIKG
Nature of the assay: two-hybrid library CCmax. Conditions: mean of both orientations.

The next assay has as its target T11, APC9141-AA.
T11 chain: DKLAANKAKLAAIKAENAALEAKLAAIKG
Nature of the assay: two-hybrid library CCmax. Conditions: mean of both orientations.

In another assay the target is T12, APC7524-AA.
T12 chain: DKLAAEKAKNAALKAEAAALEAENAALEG
Nature of the assay: two-hybrid library CCmax. Conditions: mean of both orientations.

The target in the next assay is T13, APC9182-AA.
T13 chain: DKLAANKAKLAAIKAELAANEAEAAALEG
Nature of the assay: two-hybrid library CCmax. Conditions: mean of both orientations.

The target in a further assay is T14, APC6088-AA.
T14 chain: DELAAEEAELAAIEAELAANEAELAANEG
The assay is described as follows: two-hybrid library CCmax. Conditions: mean of both orientations.

For another assay, the target named is T15, APC9806-AA.
T15 chain: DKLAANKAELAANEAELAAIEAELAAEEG
Nature of the assay: two-hybrid library CCmax. Particulars: mean of both orientations.

A further assay addresses T16, APC8401-AA.
T16 chain: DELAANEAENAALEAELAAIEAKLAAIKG
The assay is described as follows: two-hybrid library CCmax. Conditions: mean of both orientations.

For a further assay, the target named is T17, APC8516-AA.
T17 chain: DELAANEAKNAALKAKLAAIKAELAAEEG
The assay is described as follows: two-hybrid library CCmax. Particulars: mean of both orientations.

Another assay deals with T18, APC5531-AA.
T18 chain: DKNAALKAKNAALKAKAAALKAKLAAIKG
Nature of the assay: two-hybrid library CCmax.

The target in a further assay is T19, 4H741-bH.
T19 chain: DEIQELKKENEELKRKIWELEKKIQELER
Nature of the assay: two-hybrid library CCNG1.

4H_GCN4, sequence (chain, as listed by the source): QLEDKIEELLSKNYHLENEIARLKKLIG

With DEIAALEAKNAALKAKNAALKAKIAALKG [4H510-AA], the interaction score in the assay with 4H_APH was -2.26; with 4H87-AA, -1.29; in the assay with O11-AA, 1.49; with 4H775-AA (mean of both orientations), -1.67; in the assay with O13-AA, -1.66; with 4H_BCR, -2.2. Further, the interaction score with 4H_GCN4 is -2.32; in the assay with GCN2_T it was -1.77; with 4H816-AA it was -2; with 4H510-AA it was -1.44; in the assay with O14-AA, 1.32.

As to DKNAALKAKNAALKAKAAALKAKLAAIKG [APC5531-AA], the interaction score in the assay with APC9291-AA is -1.72; in the assay with APC9141-AA, -1.97; in the assay with APC7524-AA, -1.84; with APC9182-AA it was -1.96; with APC6088-AA, -1.44; with APC9806-AA, -1.95. Further, the interaction score with APC8401-AA was -1.77; with APC8516-AA, -1.6; in the assay with APC5531-AA, -1.63.

In the assay with 4H741-bH, DEIQELKKENEELKRKIWELEKKIQELER [4H741-bH] gave an interaction score of 1.26.

For the molecule DEIAALKAKIAALEAEIAALEAKNAALEG [4H775-AA], the interaction score with 4H87-AA is -1.7; with 4H775-AA, 1.62; in the assay with 4H816-AA, 1.66.
